Laboratory results from patent US20190134153A1, “IMMUNOMODULATORY EFFECT OF INHALED KINASE INHIBITOR PEPTIDES IN LUNG” (MOERAE MATRIX, INC., priority 2017, published 2019).

Experiments:
Test in all cases: Kinase Profiling Assay
Format in all cases: biochemical
Conditions in all cases: 100 μM
[1] = biological target: PAK4(h) (Homo sapiens, UniProt O96013)
[2] = biological target: Plk3(h) (Homo sapiens, UniProt Q9H4B4)
[3] = biological target: Ros(h) (Homo sapiens, UniProt P08922)
[4] = biological target: GRK6(h) (Homo sapiens, UniProt P43250)
[5] = biological target: Abl(Y253F)(h) (Homo sapiens, UniProt P00519, Y253F)
[6] = biological target: T1, IKKβ(h) (Homo sapiens, UniProt O14920)
T1 sequence (O14920 1-756): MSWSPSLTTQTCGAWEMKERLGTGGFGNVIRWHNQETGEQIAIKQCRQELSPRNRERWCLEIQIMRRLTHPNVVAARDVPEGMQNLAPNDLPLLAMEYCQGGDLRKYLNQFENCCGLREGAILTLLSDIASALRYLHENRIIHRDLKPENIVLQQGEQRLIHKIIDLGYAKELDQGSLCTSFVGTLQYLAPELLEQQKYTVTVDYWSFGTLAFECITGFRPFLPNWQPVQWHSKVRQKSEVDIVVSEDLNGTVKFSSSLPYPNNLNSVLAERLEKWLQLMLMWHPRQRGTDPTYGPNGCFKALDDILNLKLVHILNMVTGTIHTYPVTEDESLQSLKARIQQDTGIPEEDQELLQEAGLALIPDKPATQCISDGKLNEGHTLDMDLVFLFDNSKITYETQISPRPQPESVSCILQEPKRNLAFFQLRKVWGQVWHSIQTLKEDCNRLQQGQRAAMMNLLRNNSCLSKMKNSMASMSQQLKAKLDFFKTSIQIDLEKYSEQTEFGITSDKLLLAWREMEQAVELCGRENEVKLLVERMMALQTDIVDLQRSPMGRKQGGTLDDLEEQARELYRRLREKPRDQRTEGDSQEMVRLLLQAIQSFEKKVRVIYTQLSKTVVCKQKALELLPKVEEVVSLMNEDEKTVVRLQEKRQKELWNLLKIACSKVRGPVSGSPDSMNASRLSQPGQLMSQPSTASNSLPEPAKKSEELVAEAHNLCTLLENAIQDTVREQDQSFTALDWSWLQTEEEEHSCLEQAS

[7] = biological target: T2, ULK2(h) (Homo sapiens, UniProt Q8IYT8)
T2 sequence (Q8IYT8 1-1036): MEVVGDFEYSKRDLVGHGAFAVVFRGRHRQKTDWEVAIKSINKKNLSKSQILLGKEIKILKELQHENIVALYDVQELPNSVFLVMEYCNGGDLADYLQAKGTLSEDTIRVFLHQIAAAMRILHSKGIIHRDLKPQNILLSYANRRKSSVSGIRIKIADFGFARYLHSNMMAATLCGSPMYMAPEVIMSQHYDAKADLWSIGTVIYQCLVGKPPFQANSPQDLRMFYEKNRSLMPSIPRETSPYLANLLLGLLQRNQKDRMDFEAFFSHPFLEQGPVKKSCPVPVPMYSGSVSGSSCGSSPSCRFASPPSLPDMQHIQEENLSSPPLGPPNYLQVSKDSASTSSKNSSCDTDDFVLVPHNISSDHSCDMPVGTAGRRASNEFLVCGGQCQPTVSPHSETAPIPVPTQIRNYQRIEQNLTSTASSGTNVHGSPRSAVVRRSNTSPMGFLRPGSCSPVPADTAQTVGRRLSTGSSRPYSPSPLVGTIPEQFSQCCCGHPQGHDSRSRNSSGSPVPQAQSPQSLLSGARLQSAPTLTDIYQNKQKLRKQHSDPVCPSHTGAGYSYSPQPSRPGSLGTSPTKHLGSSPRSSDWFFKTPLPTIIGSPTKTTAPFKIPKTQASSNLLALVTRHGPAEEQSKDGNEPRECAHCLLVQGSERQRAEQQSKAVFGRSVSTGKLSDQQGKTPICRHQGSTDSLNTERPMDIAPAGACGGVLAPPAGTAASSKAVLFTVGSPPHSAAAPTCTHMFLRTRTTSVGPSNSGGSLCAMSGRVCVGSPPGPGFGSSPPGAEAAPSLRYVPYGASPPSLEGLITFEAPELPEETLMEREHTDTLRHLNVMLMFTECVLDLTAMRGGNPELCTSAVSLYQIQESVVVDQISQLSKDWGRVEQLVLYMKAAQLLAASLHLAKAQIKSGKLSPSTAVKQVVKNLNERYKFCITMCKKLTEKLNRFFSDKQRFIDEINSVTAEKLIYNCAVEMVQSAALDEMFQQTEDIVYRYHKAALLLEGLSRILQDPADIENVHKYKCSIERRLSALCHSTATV

[8] = biological target: Rsk1(h) (Homo sapiens, UniProt Q15418)
[9] = biological target: MINK(h) (Homo sapiens, UniProt Q8N4C8)
[10] = biological target: PKCγ(h) (Homo sapiens, UniProt P05129)
[11] = biological target: Lck(h) activated (Homo sapiens, UniProt P06239)
[12] = biological target: WNK2(h) (Homo sapiens, UniProt Q9Y3S1)
[13] = biological target: Fms(Y969C)(h) (Homo sapiens, UniProt P07333, Y969C)

Lck(h) activated, sequence (P06239 whole entry): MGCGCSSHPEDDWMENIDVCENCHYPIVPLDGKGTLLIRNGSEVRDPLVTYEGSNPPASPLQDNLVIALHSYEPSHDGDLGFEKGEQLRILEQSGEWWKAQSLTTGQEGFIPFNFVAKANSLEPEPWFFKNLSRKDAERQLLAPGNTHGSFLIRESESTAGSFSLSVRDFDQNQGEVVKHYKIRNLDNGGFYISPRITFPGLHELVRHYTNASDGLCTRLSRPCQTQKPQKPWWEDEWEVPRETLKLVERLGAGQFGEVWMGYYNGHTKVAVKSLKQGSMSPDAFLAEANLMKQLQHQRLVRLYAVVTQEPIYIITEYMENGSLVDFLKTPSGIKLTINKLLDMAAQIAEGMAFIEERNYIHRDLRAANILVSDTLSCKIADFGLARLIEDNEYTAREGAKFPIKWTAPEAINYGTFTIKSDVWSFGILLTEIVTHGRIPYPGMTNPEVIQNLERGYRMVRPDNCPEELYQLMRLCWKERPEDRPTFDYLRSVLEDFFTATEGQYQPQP
Rsk1(h), sequence (Q15418 whole entry): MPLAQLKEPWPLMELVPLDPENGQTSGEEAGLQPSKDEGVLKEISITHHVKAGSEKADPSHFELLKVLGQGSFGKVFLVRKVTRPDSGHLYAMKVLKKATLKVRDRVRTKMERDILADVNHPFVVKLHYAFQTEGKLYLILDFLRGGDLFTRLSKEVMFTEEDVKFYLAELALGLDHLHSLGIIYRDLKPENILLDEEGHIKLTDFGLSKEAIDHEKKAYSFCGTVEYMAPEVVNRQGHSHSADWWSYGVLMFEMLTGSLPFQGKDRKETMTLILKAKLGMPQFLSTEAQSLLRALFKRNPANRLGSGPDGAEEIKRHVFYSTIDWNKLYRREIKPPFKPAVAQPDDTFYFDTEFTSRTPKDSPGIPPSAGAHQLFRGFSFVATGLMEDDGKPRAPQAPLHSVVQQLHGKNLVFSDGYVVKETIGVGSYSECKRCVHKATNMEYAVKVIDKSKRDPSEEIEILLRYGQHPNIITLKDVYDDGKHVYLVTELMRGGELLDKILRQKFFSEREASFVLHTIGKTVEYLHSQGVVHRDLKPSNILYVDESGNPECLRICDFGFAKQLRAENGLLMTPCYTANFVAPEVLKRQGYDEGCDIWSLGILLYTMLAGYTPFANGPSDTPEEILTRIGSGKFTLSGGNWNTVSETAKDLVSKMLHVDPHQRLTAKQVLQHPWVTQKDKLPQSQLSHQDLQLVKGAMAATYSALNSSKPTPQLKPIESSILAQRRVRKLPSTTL
MINK(h), sequence (Q8N4C8 whole entry): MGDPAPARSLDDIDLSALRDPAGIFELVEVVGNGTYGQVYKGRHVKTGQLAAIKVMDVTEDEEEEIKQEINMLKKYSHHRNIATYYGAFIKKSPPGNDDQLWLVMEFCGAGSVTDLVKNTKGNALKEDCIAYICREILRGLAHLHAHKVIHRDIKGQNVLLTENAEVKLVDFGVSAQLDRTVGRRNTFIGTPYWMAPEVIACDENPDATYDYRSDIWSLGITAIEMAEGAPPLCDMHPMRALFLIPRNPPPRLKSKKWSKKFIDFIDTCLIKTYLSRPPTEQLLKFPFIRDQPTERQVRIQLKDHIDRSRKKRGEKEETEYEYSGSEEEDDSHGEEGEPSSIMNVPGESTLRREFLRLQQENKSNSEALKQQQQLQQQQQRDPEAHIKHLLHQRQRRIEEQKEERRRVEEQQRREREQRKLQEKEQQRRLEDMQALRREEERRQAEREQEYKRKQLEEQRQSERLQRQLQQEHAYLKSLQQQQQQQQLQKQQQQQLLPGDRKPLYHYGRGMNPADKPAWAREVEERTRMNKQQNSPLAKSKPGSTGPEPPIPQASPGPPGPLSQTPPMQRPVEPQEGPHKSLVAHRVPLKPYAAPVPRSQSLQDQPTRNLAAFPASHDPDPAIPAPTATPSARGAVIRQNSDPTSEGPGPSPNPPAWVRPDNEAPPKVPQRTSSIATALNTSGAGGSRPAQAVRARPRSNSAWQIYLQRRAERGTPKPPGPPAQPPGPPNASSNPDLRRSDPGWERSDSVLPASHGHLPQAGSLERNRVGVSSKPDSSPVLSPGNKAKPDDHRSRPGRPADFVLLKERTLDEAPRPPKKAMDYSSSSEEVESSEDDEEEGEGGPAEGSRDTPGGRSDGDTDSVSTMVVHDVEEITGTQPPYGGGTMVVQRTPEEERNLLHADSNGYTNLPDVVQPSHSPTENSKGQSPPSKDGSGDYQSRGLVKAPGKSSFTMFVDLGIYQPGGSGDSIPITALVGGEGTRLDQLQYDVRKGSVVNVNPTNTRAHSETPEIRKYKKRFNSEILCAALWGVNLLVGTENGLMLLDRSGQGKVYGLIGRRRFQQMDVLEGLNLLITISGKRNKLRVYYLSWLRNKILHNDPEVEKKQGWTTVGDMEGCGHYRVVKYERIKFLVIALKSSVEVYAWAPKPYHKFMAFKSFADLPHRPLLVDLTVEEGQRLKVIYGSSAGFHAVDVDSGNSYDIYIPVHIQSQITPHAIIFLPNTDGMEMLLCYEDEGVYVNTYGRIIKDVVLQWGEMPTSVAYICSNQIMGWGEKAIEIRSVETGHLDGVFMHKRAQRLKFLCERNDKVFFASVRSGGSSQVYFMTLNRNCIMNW
Ros(h), sequence (P08922 28-2347): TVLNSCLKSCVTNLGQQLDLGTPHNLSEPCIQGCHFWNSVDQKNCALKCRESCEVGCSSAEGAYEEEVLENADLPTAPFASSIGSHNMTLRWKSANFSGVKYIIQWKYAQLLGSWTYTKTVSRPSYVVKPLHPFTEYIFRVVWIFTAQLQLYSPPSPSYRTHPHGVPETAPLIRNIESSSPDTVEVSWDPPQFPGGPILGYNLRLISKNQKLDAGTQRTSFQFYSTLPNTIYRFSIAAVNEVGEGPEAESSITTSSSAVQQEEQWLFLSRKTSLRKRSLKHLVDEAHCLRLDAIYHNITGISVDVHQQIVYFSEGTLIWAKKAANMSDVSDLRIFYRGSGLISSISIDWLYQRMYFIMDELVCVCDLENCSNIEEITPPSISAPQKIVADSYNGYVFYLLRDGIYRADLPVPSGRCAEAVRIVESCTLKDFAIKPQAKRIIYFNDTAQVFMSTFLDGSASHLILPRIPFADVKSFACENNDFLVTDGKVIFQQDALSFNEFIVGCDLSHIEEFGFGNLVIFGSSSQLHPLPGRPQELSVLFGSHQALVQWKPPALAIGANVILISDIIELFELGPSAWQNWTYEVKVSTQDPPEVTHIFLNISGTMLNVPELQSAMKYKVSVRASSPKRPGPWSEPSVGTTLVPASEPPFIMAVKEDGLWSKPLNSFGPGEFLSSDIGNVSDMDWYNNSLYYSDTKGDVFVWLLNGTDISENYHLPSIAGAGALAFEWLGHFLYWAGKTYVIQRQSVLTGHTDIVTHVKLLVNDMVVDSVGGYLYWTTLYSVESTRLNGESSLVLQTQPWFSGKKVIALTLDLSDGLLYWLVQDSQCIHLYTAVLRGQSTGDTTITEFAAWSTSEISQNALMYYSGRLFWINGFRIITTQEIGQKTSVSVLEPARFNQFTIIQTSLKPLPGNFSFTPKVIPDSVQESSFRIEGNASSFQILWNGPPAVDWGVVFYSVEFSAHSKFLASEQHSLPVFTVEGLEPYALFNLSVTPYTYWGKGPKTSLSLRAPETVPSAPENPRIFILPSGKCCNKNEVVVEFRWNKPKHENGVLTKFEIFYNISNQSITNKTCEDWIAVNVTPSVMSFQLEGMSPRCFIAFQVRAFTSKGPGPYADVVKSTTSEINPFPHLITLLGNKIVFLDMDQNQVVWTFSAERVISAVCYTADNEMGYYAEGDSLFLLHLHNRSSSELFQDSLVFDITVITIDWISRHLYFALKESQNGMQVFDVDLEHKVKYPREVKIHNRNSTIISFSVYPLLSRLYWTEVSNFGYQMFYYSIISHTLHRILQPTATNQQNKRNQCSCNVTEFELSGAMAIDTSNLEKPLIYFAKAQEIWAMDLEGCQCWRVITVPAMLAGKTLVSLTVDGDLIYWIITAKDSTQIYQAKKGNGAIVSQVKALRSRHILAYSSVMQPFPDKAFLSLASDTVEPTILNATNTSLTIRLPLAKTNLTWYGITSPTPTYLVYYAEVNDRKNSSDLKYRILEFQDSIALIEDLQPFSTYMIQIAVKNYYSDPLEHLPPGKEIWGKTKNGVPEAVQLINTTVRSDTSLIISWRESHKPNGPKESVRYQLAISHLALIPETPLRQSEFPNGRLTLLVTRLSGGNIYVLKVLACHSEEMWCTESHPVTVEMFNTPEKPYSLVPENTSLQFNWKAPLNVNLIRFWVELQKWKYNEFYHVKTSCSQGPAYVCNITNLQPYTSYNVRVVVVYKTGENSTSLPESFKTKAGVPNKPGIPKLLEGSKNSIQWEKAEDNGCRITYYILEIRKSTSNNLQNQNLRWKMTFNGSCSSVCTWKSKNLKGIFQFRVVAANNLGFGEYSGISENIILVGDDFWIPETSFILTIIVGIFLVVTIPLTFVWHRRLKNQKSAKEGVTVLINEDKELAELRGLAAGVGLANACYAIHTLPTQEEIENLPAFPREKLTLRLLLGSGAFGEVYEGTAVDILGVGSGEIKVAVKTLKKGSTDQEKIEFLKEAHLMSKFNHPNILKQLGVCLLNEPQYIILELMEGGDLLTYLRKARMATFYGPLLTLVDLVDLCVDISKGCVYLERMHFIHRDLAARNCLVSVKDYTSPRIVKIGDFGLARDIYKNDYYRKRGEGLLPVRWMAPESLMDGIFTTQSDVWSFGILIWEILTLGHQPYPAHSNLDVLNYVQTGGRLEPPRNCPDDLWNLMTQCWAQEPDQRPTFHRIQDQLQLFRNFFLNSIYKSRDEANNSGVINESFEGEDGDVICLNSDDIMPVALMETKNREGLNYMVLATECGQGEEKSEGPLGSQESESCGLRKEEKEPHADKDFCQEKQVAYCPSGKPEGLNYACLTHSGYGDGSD

Sequence | % activity [1] [%] | % activity [2] [%] | % activity [3] [%] | % activity [4] [%] | % activity [5] [%] | % activity [6] [%] | % activity [7] [%] | % activity [8] [%] | % activity [9] [%] | % activity [10] [%] | % activity [11] [%] | % activity [12] [%] | % activity [13] [%]
HRRIKAWLKKIKALARQLGVAA [MMI-0500] | 86 | 122 | 150 | 174 | 29 | 71 | 124 | 34 | 5 | 6 | 76 | 8 | 
YARAAARQARAKALNRQLGVA [MMI-0200] | 98 |  | 86 | 132 |  |  | 132 |  |  | 101 | 90 | 94 | 88
KAFAKLAARLYRKALARQLGVAA [MMI-0400] | 89 | 129 | 99 | 141 | 78 | 84 | 131 | 54 | 52 | 79 | 216 | 54 | 91
FAKLAARLYRKALARQLGVAA [MMI-0300] | 94 | 127 | 95 | 147 | 86 | 84 | 122 | 46 | 48 | 89 | 243 | 64 | 72
